# Literature values, collected in PMC1950483.
# Tests used:
# Experiment in all cases: NMR
# Conditions in all cases: folded FNfn10 in solution
# [1] = biological target: Glu9 (UniProt position 1546, VPRDLEVVAAT)
# [2] = biological target: Asp7 (UniProt position 1544, SDVPRDLEVVA)
# [3] = biological target: Asp23 (UniProt position 1560, LLISWDAPAVT)
substance,measurement,setting,value
"Fibronectin, tenth type III domain (FNfn10) (Homo sapiens)",pKa,[1],5.25
same,pKa,[2],5.54
same,pKa,[3],5.40
